According to patent publication US20200370050:

Target: FLAG-CRAF (1-648)

B1: human placental GSTP1 (Sigma-Aldrich) (protein)
chain: PPYTVVYFPVRGRCAALRMLLADQGQSWKEEVVTVETWQEGSLKASCLYGQLPKFQDGDLTLYQSNTILRHLGRTLGLYGKDQQEAALVDMVNDGVEDLRCKYISLIYTNYEAGKDDYVKALPGQLKPFETLLSQNQGGKTFIVGDQISFADYNLLDLLLIHEVLAPGCLDAFPLLSAYVGRLSARPKLKAFLASPEYVNLPINGNGKQ
phosphorylation of MEK1 by FLAG-CRAF (in vitro kinase assay, Western blot for p-MEK1/2): GSTP1 was found to enhance the phosphorylation of MEK1 by FLAG-CRAF (compare lanes 3 and 5 in FIG. 3)
